Source: patent publication US9744212B2, “Galectin-3C combination therapy for human cancer” (Texas Tech University System, priority 2011, dated 2017)

What was measured:
[1] = tested on: GFP-expressing HUVECs in U266 tumors; assay: Pilot study of in vivo angiogenesis inhibition (GFP-HUVEC plus U266 in Matrigel, nude mice); set-up: species or system mouse
Experimental: Pilot study of in vivo angiogenesis inhibition by Gal-3C. To determine the ability of Gal-3C to inhibit angiogenesis in vivo, 106 HUVECs infected with GFP-expressing rAAV vectors and 107 U266 MM cells were mixed together and suspended in 300 μL Matrigel. The cell mixture was injected subcutaneously into 6 nude mice and allowed to grow for two weeks. Three days after tumor administration, the mice were divided into two groups and one group was implanted with osmotic mini-pumps and treated with Gal-3C as in the study describe above. After 2 weeks, mice were sacrificed, pictures were taken, and the GFP-expressing cells in tumor masses were analyzed by flow cytometry.
The ability of Gal-3C to inhibit angiogenesis in vivo was determined in a pilot study. Six mice were injected with […] HUVECs and 107 U266 MM cells suspended in Matrigel and divided into two groups after two weeks. One group of 3 mice was implanted with osmotic mini-pumps and treated with Gal-3C as described above.

AKT/IKK pathway = assay: Western blot of proteins in the NF-κB AKT/IKK pathway; type: cell-based; conditions: U266 and primary human MM cells; Gal-3C 10 μg/ml
Source text: EXAMPLE 4 indicates Gal-3C impairs NF-kB activation induced by Bonin U266 cells. Recently, it has been shown that the mechanism of action of Boris more complex than originally thought and can be differ depending on the cell type. […] This effect potentially reduces the therapeutic effect of Bonin MM, because NF-kB activation in plasma cells is associated with anti-apoptotic pathways (91). […] Comparison of NFkB expression by Western blot. […] Equal amounts of lysates of human primary MM and U266 cells and media were fractionated by SDS-PAGE and transferred to nitrocellulose membranes. Primary antibodies were visualized with HRP-coupled goat anti-rabbit or anti-mouse IgGs using an ATK/IKK kit (Cell Signaling Technology, Danvers, Mass.).
Upon IKK-mediated phosphorylation, IKBα dissociates from the NF-kB complex (p50 and p65 proteins). Free NF-kB is then phosphorylated on serine 529 of the p65 subunit and enters the nucleus where it regulates gene transcription.

B1: Gal-3C: N-terminally truncated human galectin-3 consisting of 143 carboxy-terminal amino acid residues, SEQ ID NO: 1 (protein)
chain: GAPAGPLIVPYNLPLPGGVVPRMLITILGTVKPNANRIALDFQRGNDVAFHFNPRFNENNRRVIVCNTKLDNNWGREERQSVFPFESGKPFKIQVLVEPDHFKVAVNDAHLLQYNHRVKKLNEISKLGISGDIDITSASYTMI
- mean fluorescence intensity (MFI) of cells from tumor masses ([1]; GFP-expressing HUVEC, FACS, controls 19.24): 9.4 MFI
- reduction of the number of endothelial cells in the tumors ([1]; compared to control mice): 48%
- GFP-expressing HUVECs as share of the cells in tumor masses ([1]; controls 89.3%): 46.2%
- subcutaneous vascularization near tumors ([1]; image analyses of nude mice): markedly reduced
- tumor size (white circles, representative mouse) ([1]; nude mice, control 7 mm): 3 mm
- P-p65, P-Akt, P-IKKβ and P-IKKα (activation of the AKT/IKK pathway) (AKT/IKK pathway): inhibited
